“And” between values parts separate entries of the source, which are not always exact repeats. Equal values may be shown once.
What was measured:
[1] = biological target: human colorectal and pancreatic carcinoma-associated antigens (CPAA) (human); assay: flow cytometry, CFPAC-1 pancreatic tumor cells, control antibody
[2] = biological target: human colorectal and pancreatic carcinoma-associated antigens (CPAA) (human); assay: flow cytometry, GEO colorectal tumor cells, control antibody
[3] = biological target: human colorectal and pancreatic carcinoma-associated antigens (CPAA) (human); assay: flow cytometry, LS174T colorectal tumor cells, control antibody
[4] = biological target: human colorectal and pancreatic carcinoma-associated antigens (CPAA) (human); assay: flow cytometry, MCF-7 breast tumor cells, control antibody
[5] = biological target: human colorectal and pancreatic carcinoma-associated antigens (CPAA) (human); assay: flow cytometry, OVCAR-3 ovarian tumor cells, control antibody
[6] = biological target: human colorectal and pancreatic carcinoma-associated antigens (CPAA) (human); assay: flow cytometry, SW480 colorectal tumor cells, 2 ug NPC-1C per 100,000 cells
[7] = biological target: human colorectal and pancreatic carcinoma-associated antigens (CPAA) (human); assay: flow cytometry, SW756 squamous tumor cells (type reported as not bound), 2 ug NPC-1C per 100,000 cells
[8] = biological target: human colorectal and pancreatic carcinoma-associated antigens (CPAA) (human); assay: flow cytometry, PC-3 prostate tumor cells (type reported as not bound), 2 ug NPC-1C per 100,000 cells
[9] = biological target: human colorectal and pancreatic carcinoma-associated antigens (CPAA) (human); assay: flow cytometry, Panc-1 pancreatic tumor cells, 2 ug NPC-1C per 100,000 cells
[10] = biological target: human colorectal and pancreatic carcinoma-associated antigens (CPAA) (human); assay: flow cytometry, AsPC-1 pancreatic tumor cells, 2 ug NPC-1C per 100,000 cells
[11] = biological target: human colorectal and pancreatic carcinoma-associated antigens (CPAA) (human); assay: flow cytometry, SW620 colorectal tumor cells, 2 ug NPC-1C per 100,000 cells
[12] = biological target: human colorectal and pancreatic carcinoma-associated antigens (CPAA) (human); assay: flow cytometry, H520 squamous tumor cells (type reported as not bound), 2 ug NPC-1C per 100,000 cells
[13] = biological target: human colorectal and pancreatic carcinoma-associated antigens (CPAA) (human); assay: flow cytometry, CFPAC-1 pancreatic tumor cells, 2 ug NPC-1C per 100,000 cells
[14] = biological target: human colorectal and pancreatic carcinoma-associated antigens (CPAA) (human); assay: flow cytometry, HTB-35 squamous tumor cells (type reported as not bound), 2 ug NPC-1C per 100,000 cells
[15] = biological target: human colorectal and pancreatic carcinoma-associated antigens (CPAA) (human); assay: flow cytometry, H226 squamous tumor cells (type reported as not bound), 2 ug NPC-1C per 100,000 cells
[16] = biological target: human colorectal and pancreatic carcinoma-associated antigens (CPAA) (human); assay: flow cytometry, SW1463 colorectal tumor cells, 2 ug NPC-1C per 100,000 cells
[17] = biological target: human colorectal and pancreatic carcinoma-associated antigens (CPAA) (human); assay: flow cytometry, HT-29 colorectal tumor cells, 2 ug NPC-1C per 100,000 cells
[18] = biological target: human colorectal and pancreatic carcinoma-associated antigens (CPAA) (human); assay: flow cytometry, SW1116 colorectal tumor cells, 2 ug NPC-1C per 100,000 cells
[19] = biological target: human colorectal and pancreatic carcinoma-associated antigens (CPAA) (human); assay: flow cytometry, Colo-205 colorectal tumor cells, 2 ug NPC-1C per 100,000 cells
[20] = biological target: human colorectal and pancreatic carcinoma-associated antigens (CPAA) (human); assay: flow cytometry, DU145 prostate tumor cells (type reported as not bound), 2 ug NPC-1C per 100,000 cells
[21] = biological target: human colorectal and pancreatic carcinoma-associated antigens (CPAA) (human); assay: flow cytometry, LS174T colorectal tumor cells, 2 ug NPC-1C per 100,000 cells
[22] = biological target: human colorectal and pancreatic carcinoma-associated antigens (CPAA) (human); assay: flow cytometry, GEO colorectal tumor cells, 2.5 ug NPC-1 per 100,000 cells
[23] = biological target: human colorectal and pancreatic carcinoma-associated antigens (CPAA) (human); assay: flow cytometry, CFPAC-1 pancreatic tumor cells, 2.5 ug NPC-1 per 100,000 cells
[24] = biological target: human colorectal and pancreatic carcinoma-associated antigens (CPAA) (human); assay: flow cytometry, LS174T colorectal tumor cells, 2.5 ug NPC-1 per 100,000 cells
[25] = biological target: human colorectal and pancreatic carcinoma-associated antigens (CPAA) (human); assay: flow cytometry, MCF-7 breast tumor cells (line reported as not bound), 2.5 ug NPC-1 per 100,000 cells
[26] = biological target: human colorectal and pancreatic carcinoma-associated antigens (CPAA) (human); assay: flow cytometry, OVCAR-3 ovarian tumor cells (line reported as not bound), 2.5 ug NPC-1 per 100,000 cells

## Isotype Control (antibody)
[1]
  % Cell Staining: 0.44%
[2]
  % Cell Staining: 0.78%
[3]
  % Cell Staining: 0.93%
[4]
  % Cell Staining: 0.94%
[5]
  % Cell Staining: 0.19%

B1: NPC-1C chimeric antibody (antibody, mouse IgG1, kappa, V domains shown)
VH: QVQLKESGPDLVAPSQSLSITCIVSGFSLSKFGVNWVRQPPGKGLEWLGVIWGDGSTSYNSGLISRLSIKENSKSQVFLKLNSLQADDTATYYCVKPGGDYWGHGTSVTVSS
VL: QVVLTQSPVIMSASPGEKVTMTCSASSSISYMYWYQQKPGTSPRWIYDTSKLASGVPARFSGGSGTSYSLTISNMEAGDAAYYCHQRDSYPWTFGGGTNLIKRA
[6]
  % Cell Staining: 1.41% and 1.34%
  mfi (mean fluorescence intensity): 44 and 64
[7]
  % Cell Staining: 0.75% and 2.14%
  mfi (mean fluorescence intensity): 186 and 178
[8]
  % Cell Staining: 1.34% and 1.52%
  mfi (mean fluorescence intensity): 17 and 28
[9]
  % Cell Staining: 0.75% and 0.41%
  mfi (mean fluorescence intensity): 69 and 31
[10]
  % Cell Staining: 0.43% and 0.35%
  mfi (mean fluorescence intensity): 33 and 34
[11]
  % Cell Staining: 0.24% and 0.85%
  mfi (mean fluorescence intensity): 184 and 74
[12]
  % Cell Staining: 1.66% and 0.93%
  mfi (mean fluorescence intensity): 129 and 173
[13]
  % Cell Staining: 11.2% and 10.6%
  mfi (mean fluorescence intensity): 16 and 15
[14]
  % Cell Staining: 4.83% and 3.85%
  mfi (mean fluorescence intensity): 97 and 123
[15]
  % Cell Staining: 0.49% and 0.4%
  mfi (mean fluorescence intensity): 32
[16]
  % Cell Staining: 3.72% and 4.29%
  mfi (mean fluorescence intensity): 410 and 399
[17]
  % Cell Staining: 1.3% and 1.09%
  mfi (mean fluorescence intensity): 55 and 34
[18]
  % Cell Staining: 1.12% and 2.37%
  mfi (mean fluorescence intensity): 97 and 174
[19]
  % Cell Staining: 2.26% and 1.44%
  mfi (mean fluorescence intensity): 154 and 67
[20]
  % Cell Staining: 0.24% and 0.14%
[21]
  % Cell Staining: 11.6% and 11.2%
  mfi (mean fluorescence intensity): 43 and 47

B2: NPC-1 monoclonal antibody (antibody, mouse IgG1, kappa, V domains shown)
VH: B1 VH
VL: B1 VL
[22]
  % Cell Staining: 86.9%
[23]
  % Cell Staining: 54.6%
[24]
  % Cell Staining: 57%
[25]
  % Cell Staining: 0.19%
[26]
  % Cell Staining: 0.19%

— patent US20230203190A1
